Data taken from the nanobody polyreactivity screen of Harvey et al. (2022).

Experiment: yeast display, Sf9 membrane polyspecificity reagent, FACS + sequencing; frameworks hold sequencing errors
In short: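 A nanobody's polyreactivity label depends on the gate it was sorted from. Yeast display cells were stained with 10% biotinylated, detergent-solubilized Sf9 membrane reagent for 1 hour at 4 °C, enriched on streptavidin microbeads and sorted by FACS. The low and high (top ~1%) gates were set on anti-HA fluorescence for expression and streptavidin fluorescence for reagent binding.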
With “QVQLVESGGGLVQAGGSLRLSCAASGLTFWYNAMGWYRQAPGKERELVAAINSGGRTNYADSVKGRFTISRDNAKNTVYLQMNSLKPEDTAVYYCAAVRHWTVGWTYYYWGQGTQVTVSS” the “polyreactivity (PSR sort gate)” value was “high polyreactivity”.
For “QVQLVESGGGLVQAGGSLRLSCAASGLTFYDYAMGWYRQAPGKERELVAAISSGGSTYYADSVKGRFTISRDNAKNTVYLHMNSLKPEDTAVYYCAARPAYRVHAMGYWGQGTQVTVSS”, the “polyreactivity (PSR sort gate)” value was “low polyreactivity”.
With “QVQLVESGGGLVQAGGSLRLSCAASGLTFYEYAMGWYTQAPGKERELVAAITASGGSTYYADSVKGRFTISRDNAKNTVYLQMNSLKPEDSAVYYCAAVDYVRYYPDEFDYWGQGTQVTVSS” the “polyreactivity (PSR sort gate)” value was “low polyreactivity”.
With “QVQLVESGGGLVQAGGSLRLSCAASGLTFYKNVMGWYRQAPGKERELVAAISSSGGSTYYADSVKGRFTISRDNAKNTVYLQMNSLKPDDTAVYYGAADDPLYTPYEFDYWGQGTQVTVSS” the “polyreactivity (PSR sort gate)” value was “low polyreactivity”.
In the case of “QVQLVESGGGLVQAGGSLRLSCAASGLTFYLYDMGWYRQAPGKERELVAAISRRGTSTYYADSVKGRFTISRDNAKNTVYLQMNSLKPEDTAVYYCAADRKFGRDYWGQGTQVTVSS”, the “polyreactivity (PSR sort gate)” value is reported as “high polyreactivity”.
With “QVQLVESGGGLVQAGGSLRLSCAASGLTFYRNAMGWYRQAPGKERELVAAITSRGGSTYYADSVKGRFTISRDNAKNTVYLQMNSLKPEDTAVYYCAAYSTLITGRDYGYWGQGTQVTVSS” the “polyreactivity (PSR sort gate)” value was “high polyreactivity”.
In the case of “QVQLVESGGGLVQAGGSLRLSCAASGLTFYRYAMGLYRQAPGKERELVAGITRRGGSTYYADSVKGRFTISRDNAKNTVYLQMNSLKPEDTSVYYCNVDGISSSYPELDYWGQGTQVTVSS”, the “polyreactivity (PSR sort gate)” value is reported as “low polyreactivity”.
For “QVQLVESGGGLVQAGGSLRLSCAASGLTFYRYAMGWYRQAPWKERDFVAAINRNGGSTYYADSVKGRFTISRDNAKNTVYLEMNSLKPEDTAVYYCNARVSGTRSGRVLRDYWGQGTQVTVSS”, the “polyreactivity (PSR sort gate)” value was “high polyreactivity”.
In the case of “QVQLVESGGGLVQAGGSLRLSCAASGLTFYSYAMGWSRQAPGKERELVAAISKSGGSTFYADSVKGRFTISRDNAKNTVYLQMNSLKPEDTAVYYCNARRRHEGSPPYGYWGQGTQVTVSS”, the “polyreactivity (PSR sort gate)” value is reported as “high polyreactivity”.
For “QVQLVESGGGLVQAGGSLRLSCAASGLTFYSYAMGWYRQAPGKERELVAAISKSGGSTYYADSVKGRFTISRDNAKNTVYLQMNSLKPEDTAVYYCNALTKTGTPPDYDYWGQGTQVTVSS”, the “polyreactivity (PSR sort gate)” value was “high polyreactivity”.
For “QVQLVESGGGLVQAGGSLRLSCAASGLTFYTNAMGWYRQAPGKERELVAAITSSGGRTYYADSVKGRFTISRDNAKNTVYLQMNSLKPEDTAVYYCAADARRPSIPEMYYCGQGTQVTVSS”, the “polyreactivity (PSR sort gate)” value was “high polyreactivity”.
In the case of “QVQLVESGGGLVQAGGSLRLSCAASGLTFYVYGMGWYRQAPGKERELVASITSGGNTYYADSVKGRFTISRDNAKNTVYLQMNSLKPEDTAVYYCAVTAIALYYSSGYYWGQGTQVTVSS”, the “polyreactivity (PSR sort gate)” value is reported as “low polyreactivity”.
With “QVQLVESGGGLVQAGGSLRLSCAASGLTFYYNAMGWYRPAPGKERELVAAITWSTDSTYYADSVKGRFTISRDNAKNTVYLQMNSLKPEDTAVYYCAAAVDAFTNKQYYYWGQGTQVTVSS” the “polyreactivity (PSR sort gate)” value was “low polyreactivity”.
For “QVQLVESGGGLVQAGGSLRLSCAASGLTFYYYAKGWYRQAPGKERDFVAAISRSGGTTYYADSVKGRYTISRDNAKNTVYLQMNSLKPEDTAVYYCNAQWCRYWPSQVIFDYWGQGTQVTVSS”, the “polyreactivity (PSR sort gate)” value was “high polyreactivity”.
With “QVQLVESGGGLVQAGGSLRLSCAASGLTFYYYAMGWYRQAPGKERELVAAISGTGGSAYYADSVKGRFTISRDNAKNTVYLQMNSLKPEDTAVYYCAARYLRYKGTGATSAYDYWGQGTQVTVSS” the “polyreactivity (PSR sort gate)” value was “high polyreactivity”.
In the case of “QVQLVESGGGLVQAGGSLRLSCAASGLTFYYYAMGWYRQAPGKERELVAAISIGGSTDYADSAKGRFTISRDNAKNTVYLQMNRLKPEDTAVYYCNVDDNSEYDYWGQGTQVTVSS”, the “polyreactivity (PSR sort gate)” value is reported as “low polyreactivity”.
In the case of “QVQLVESGGGLVQAGGSLRLSCAASGLTFYYYAMGWYRQAPGKERELVAAISYSGSRTYYADSVKGRFTISRDNAKNTVYLQMNSLKPEDTAVYYCAARLSDGGGYWGQGTQVTVSS”, the “polyreactivity (PSR sort gate)” value is reported as “high polyreactivity”.
With “QVQLVESGGGLVQAGGSLRLSCAASGLTFYYYAMGWYRQAPGKERELVASITKRGGSTYYADSVKGRFTISRDNAKNTVYLQMNSLKPEDTAVYYCAAQYRSQGQPKGGVLYYYWGQGTQVTVSS” the “polyreactivity (PSR sort gate)” value was “high polyreactivity”.
For “QVQLVESGGGLVQAGGSLRLSCAASGLTFYYYAMGWYRQSPGKEREFVAAISRSGGTTYYADSVKGRFTISRDNAKNTVYLQMNSLKPEDTAVYYCAKASRYWSLYYWGQGTQVTVSS”, the “polyreactivity (PSR sort gate)” value was “high polyreactivity”.
With “QVQLVESGGGLVQAGGSLRLSCAASGLTFYYYTMGWYRQAPGKERELVAAIDNGGGTNYADSVKGRFTISRDNAKNTVYLQMNSLKPEDTAVYYCAADRSYYIIIGYDLFAYYYWGQGTQVTVSS” the “polyreactivity (PSR sort gate)” value was “low polyreactivity”.
In the case of “QVQLVESGGGLVQAGGSLRLSCAASGLTFYYYVMGWYRQAPGKERELVAAISYSGGRTYYADSVKGRFTISRDNAKNTVYFQMNSLKPEDTEVYYCAAQSRYGGKFYYWGQGTQVTVSS”, the “polyreactivity (PSR sort gate)” value is reported as “high polyreactivity”.
In the case of “QVQLVESGGGLVQAGGSLRLSCAASGLTIFVYAMGWYRQAPGKERELVAAISDSGGSTYYADSVKGRFTISRDNAKNTVYLQMNSLKPEDSAVYYCAGNSSTYPSDDSYDYWGQGTQVTVSS”, the “polyreactivity (PSR sort gate)” value is reported as “low polyreactivity”.
With “QVQLVESGGGLVQAGGSLRLSCAASGLTINYYAMGLYRQAPGKERELVAAITWRGGSTYYADSVKGRFTISRDNAKNTVYLQMNSLKPEDTAVYYCAADPGPYGYYYWGQGTQVTVSS” the “polyreactivity (PSR sort gate)” value was “low polyreactivity”.
For “QVQLVESGGGLVQAGGSLRLSCAASGLTIRRYVMGWYRQAPGKERELVAAINWNGGSTYYADSVKGRFTISRDNAKNTVYLQMNSLKPEDTAVYYCAARSTYVYDYNYWGQGTQVTVSS”, the “polyreactivity (PSR sort gate)” value was “high polyreactivity”.
In the case of “QVQLVESGGGLVQAGGSLRLSCAASGLTISRYAMGWYRQAPGKERELVAAITSIGGSTYYADSVKGRFTISRDNAKNTVYLQMNSLKPVDTAVYYCACLRCLFPGRFDYWGQSTQVTVSS”, the “polyreactivity (PSR sort gate)” value is reported as “high polyreactivity”.
In the case of “QVQLVESGGGLVQAGGSLRLSCAASGLTITYNAMGWYRQAPGKERELVAAISWSGDSTYADSVKGRFTISRDNAKNTVYLQKNSLKPEDTAVYYCAVPKYYYYVSRFNYWGQGTQVTVSS”, the “polyreactivity (PSR sort gate)” value is reported as “high polyreactivity”.
In the case of “QVQLVESGGGLVQAGGSLRLSCAASGLTIWRYAMGWYIQAPGKERDLLAAISRSGIRTYYADSVKGRFTISRDTAKITVYLQMNSLKPEDTAVYYCAADSNAYITGRDYWGQVTQVTVSS”, the “polyreactivity (PSR sort gate)” value is reported as “high polyreactivity”.
In the case of “QVQLVESGGGLVQAGGSLRLSCAASGLTLAPYAMGWYRQAPGKERELVAAITFSGGSTYYADSVKGRFTISRDNAKNTVYLQMNSLKPEDTAVYYCARDTWAYKNGYPYYSWGQRTQVTVSS”, the “polyreactivity (PSR sort gate)” value is reported as “low polyreactivity”.
In the case of “QVQLVESGGGLVQAGGSLRLSCAASGLTLGRNAMGWYRQAPGKERELVAAISYGGGSTYYADSVKGRFTISRDNAKNTVYLQMNCLKPEDTAVYYCAADGWRTYGYYEYDYWGQGTQVTVSS”, the “polyreactivity (PSR sort gate)” value is reported as “low polyreactivity”.
For “QVQLVESGGGLVQAGGSLRLSCAASGLTLIRYAMGWYRQAPGKERELVAAISWSGGSTYYADSVKGRFTISRDNAKNTVYLQMNSLKPEDTAVYYCNTVYRYPDEYDYWGQGTQVTVSS”, the “polyreactivity (PSR sort gate)” value was “high polyreactivity”.
For “QVQLVESGGGLVQAGGSLRLSCAASGLTLTGYAMGWYRQAPGKERELVAAISQDGGNTYYADSVKGRFTISRDNAKNTVYLQMNSLKREDTAVYYCAAVGRAKYYYWGQGTQVTVSS”, the “polyreactivity (PSR sort gate)” value was “low polyreactivity”.
For “QVQLVESGGGLVQAGGSLRLSCAASGLTLTHYAMGWYRQAPGKERELVAAISSSGGRTYYADSVKGRFTISRDNAKNTVYLQMNSLKPEDTAVYYCAARVIASRGRYGYWGQGTQVTVSS”, the “polyreactivity (PSR sort gate)” value was “high polyreactivity”.
For “QVQLVESGGGLVQAGGSLRLSCAASGLTQYKNGMGWYRQAPGKERELVAVISRSGGRTYYADSVKGRFTISRDNAKNTVYLQMNSLKPEDTAVYYCAARQYGPRYTYYYWGQGTQVTVSS”, the “polyreactivity (PSR sort gate)” value was “high polyreactivity”.
For “QVQLVESGGGLVQAGGSLRLSCAASGLTSRPYVMGWYRQAPGKERDLVAAISQTGGRTYYADSVKGRFTISRDNAKNTVYLQMNSLKPEDTAVYDCAAKYSNGSGFDYWGQGTQVTVSS”, the “polyreactivity (PSR sort gate)” value was “high polyreactivity”.
For “QVQLVESGGGLVQAGGSLRLSCAASGLTSVTYAMGWYRQAPGKERELVAAITSRAGSTYYADSVKGRFTISRDNAKNTVYLQMNSLKPEDTAVYYCAKDIIRKVYAGYVGRYDYWGQGTQVTVSS”, the “polyreactivity (PSR sort gate)” value was “low polyreactivity”.
For “QVQLVESGGGLVQAGGSLRLSCAASGLTSYDYGMGWYRPAPGIERELVAAITWSGGSTYYADSVKGRFTISRDNAKNTVYLQMNSLKPEDTAVYYCAADTWGYGWYGYWGHGTQVTVSS”, the “polyreactivity (PSR sort gate)” value was “low polyreactivity”.
In the case of “QVQLVESGGGLVQAGGSLRLSCAASGLTVNRYALGWYRQAPGKERELVASIRWSGGSTYYADSVKGRFTISRDNAKNTVYLQMNSLKPEDTAVYYCAKSIASAAYDSWGQGTQVTVSS”, the “polyreactivity (PSR sort gate)” value is reported as “low polyreactivity”.
With “QVQLVESGGGLVQAGGSLRLSCAASGLTVYYYAMGWYRQAPGKERELVASISRSGGSTYYADSVKGSFTISRDNAKNTVYLQMNSLKPEDTAVYYCNVSVYRCTVKGTFDMDHWGQGTQVTVSW” the “polyreactivity (PSR sort gate)” value was “high polyreactivity”.
For “QVQLVESGGGLVQAGGSLRLSCAASGLTYAYNAMGGSRQAPGKERELVAAISKRGGSTYYADSVKGRFTISRDNAKNTVYLQMNSLKPEDTAVYYCAAGTYAIHDYWGLGTQVTVSS”, the “polyreactivity (PSR sort gate)” value was “high polyreactivity”.
With “QVQLVESGGGLVQAGGSLRLSCAASGLTYSNAMGWYRQAPVKERELVAAISWRGGRTYYADSVKGRFTISRDNAKNTVYLQMNSLKPEDTAVYYCAKYAHGHKWYGYWGQGTQVTVSS” the “polyreactivity (PSR sort gate)” value was “low polyreactivity”.
For “QVQLVESGGGLVQAGGSLRLSCAASGMIFKFYDMGWYRQAPGKEREWVASISWSGGRTYYADSVKGRFTISRDNAKNTVYLQMNSLKPEDTAVYYCAAGRYYGYGYWGQGTQVTVSS”, the “polyreactivity (PSR sort gate)” value was “high polyreactivity”.
For “QVQLVESGGGLVQAGGSLRLSCAASGMTFDYYAMGWYRQAPGKERELVAAIRSGGSTNYADSVKGRFTISRDNAKNTVYLQMNSLKPEDTAVYYCAAVRYFPWYDYWGQGTQVTVSS”, the “polyreactivity (PSR sort gate)” value was “high polyreactivity”.
With “QVQLVESGGGLVQAGGSLRLSCAASGMTFTKNVMGWYRQAPGKEWELVAVISRSGGSTYYADSVKGRFTISRDNAKNTVYLQMNSLKPEDTAVYYCTVKGPGPSRGNYWGQVTQVTVSS” the “polyreactivity (PSR sort gate)” value was “low polyreactivity”.
